System: Escherichia coli TOP10
Assay: shrunken log2 fold change of peptide-encoding DNA abundance (4.5 h post-induction vs induction); higher = less antimicrobial activity (less host growth inhibition)
Details: time post-induction: 4.5 h; library: site-saturation at positions 5, 18, 19, 20
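Note: peptides expressed intracellularly from a pBAD plasmid library in pooled LB shake-flask culture, induced with 0.3% L-arabinose, DNA abundance read by NGS, three biological replicates, DESeq2 with apeglm shrinkage.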

Sequence: RRIRYRPPRLPRPRPRPLTHPRP
- shrunken log2 fold change: -0.845

Sequence: RRIRHRPPRLPRPRPRPQGKPRP
- shrunken log2 fold change: -0.0805

Sequence: RRIRERPPRLPRPRPRPKRCPRP
- shrunken log2 fold change: -0.0369

Sequence: RRIRHRPPRLPRPRPRPSPFPRP
- shrunken log2 fold change: -0.199

Sequence: RRIRYRPPRLPRPRPRPEKKPRP
- shrunken log2 fold change: -0.0472

Sequence: RRIRCRPPRLPRPRPRPYCIPRP
- shrunken log2 fold change: -0.565

Sequence: RRIRDRPPRLPRPRPRPEICPRP
- shrunken log2 fold change: 0.023

Sequence: RRIRKRPPRLPRPRPRPSNFPRP
- shrunken log2 fold change: -0.198

Sequence: RRIRQRPPRLPRPRPRPCQAPRP
- shrunken log2 fold change: -0.187

Sequence: RRIRERPPRLPRPRPRPQHTPRP
- shrunken log2 fold change: -0.32

Sequence: RRIRERPPRLPRPRPRPKICPRP
- shrunken log2 fold change: 0.0135

Sequence: RRIRIRPPRLPRPRPRPGPSPRP
- shrunken log2 fold change: 0.108

Sequence: RRIRNRPPRLPRPRPRPAHDPRP
- shrunken log2 fold change: 0.055

Sequence: RRIRGRPPRLPRPRPRPYGAPRP
- shrunken log2 fold change: -0.00762

Sequence: RRIRRRPPRLPRPRPRPSNWPRP
- shrunken log2 fold change: -0.192

Sequence: RRIRYRPPRLPRPRPRPERSPRP
- shrunken log2 fold change: -0.00131

Sequence: RRIRDRPPRLPRPRPRPDKWPRP
- shrunken log2 fold change: -0.0651

Sequence: RRIRGRPPRLPRPRPRPECAPRP
- shrunken log2 fold change: 2.14

Sequence: RRIRFRPPRLPRPRPRPFCTPRP
- shrunken log2 fold change: -0.19

Sequence: RRIRQRPPRLPRPRPRPYAQPRP
- shrunken log2 fold change: -0.214

Sequence: RRIRLRPPRLPRPRPRPIYQPRP
- shrunken log2 fold change: -0.385

Sequence: RRIRRRPPRLPRPRPRPCNPPRP
- shrunken log2 fold change: -0.466

Sequence: RRIRCRPPRLPRPRPRPYMTPRP
- shrunken log2 fold change: -1.06

Sequence: RRIRIRPPRLPRPRPRPIQYPRP
- shrunken log2 fold change: -0.251

Sequence: RRIRMRPPRLPRPRPRPHRPPRP
- shrunken log2 fold change: 0.066

Sequence: RRIRFRPPRLPRPRPRPPMLPRP
- shrunken log2 fold change: 0.638

Sequence: RRIRPRPPRLPRPRPRPYSCPRP
- shrunken log2 fold change: -0.183

Sequence: RRIRVRPPRLPRPRPRPKDVPRP
- shrunken log2 fold change: 0.00902

Sequence: RRIRDRPPRLPRPRPRPGNPPRP
- shrunken log2 fold change: -5.31e-05

Sequence: RRIRDRPPRLPRPRPRPIFCPRP
- shrunken log2 fold change: -0.0484

Sequence: RRIRWRPPRLPRPRPRPSIYPRP
- shrunken log2 fold change: -0.305

Sequence: RRIRRRPPRLPRPRPRPSFGPRP
- shrunken log2 fold change: 0.365

Sequence: RRIRPRPPRLPRPRPRPIQPPRP
- shrunken log2 fold change: -0.0445

Sequence: RRIRARPPRLPRPRPRPRVDPRP
- shrunken log2 fold change: 0.419

Sequence: RRIRIRPPRLPRPRPRPFTDPRP
- shrunken log2 fold change: 0.0112

Sequence: RRIRTRPPRLPRPRPRPAISPRP
- shrunken log2 fold change: 0.09

Sequence: RRIRERPPRLPRPRPRPTRIPRP
- shrunken log2 fold change: 0.17

Sequence: RRIRSRPPRLPRPRPRPEHRPRP
- shrunken log2 fold change: -0.00155

Sequence: RRIRKRPPRLPRPRPRPSAYPRP
- shrunken log2 fold change: -0.277

Sequence: RRIRERPPRLPRPRPRPVMGPRP
- shrunken log2 fold change: -0.123

Sequence: RRIRTRPPRLPRPRPRPVYIPRP
- shrunken log2 fold change: -0.6

Sequence: RRIRRRPPRLPRPRPRPEVAPRP
- shrunken log2 fold change: 0.345

Sequence: RRIRMRPPRLPRPRPRPGRSPRP
- shrunken log2 fold change: 0.303

Sequence: RRIRIRPPRLPRPRPRPRTSPRP
- shrunken log2 fold change: 0.0339

Sequence: RRIRARPPRLPRPRPRPTDQPRP
- shrunken log2 fold change: 0.918

Sequence: RRIRVRPPRLPRPRPRPMHVPRP
- shrunken log2 fold change: 0.0592

Sequence: RRIRRRPPRLPRPRPRPYTAPRP
- shrunken log2 fold change: -0.447

Sequence: RRIRMRPPRLPRPRPRPSCKPRP
- shrunken log2 fold change: 0.0347

Sequence: RRIRERPPRLPRPRPRPDDPPRP
- shrunken log2 fold change: -0.157

Sequence: RRIRGRPPRLPRPRPRPSILPRP
- shrunken log2 fold change: 1.03

Sequence: RRIRFRPPRLPRPRPRPWLVPRP
- shrunken log2 fold change: -0.135

Sequence: RRIRTRPPRLPRPRPRPWKSPRP
- shrunken log2 fold change: -0.0257

Sequence: RRIRGRPPRLPRPRPRPHQTPRP
- shrunken log2 fold change: 0.242

Sequence: RRIRCRPPRLPRPRPRPCPLPRP
- shrunken log2 fold change: -0.433

Sequence: RRIRFRPPRLPRPRPRPRSAPRP
- shrunken log2 fold change: 0.379

Sequence: RRIRKRPPRLPRPRPRPLGAPRP
- shrunken log2 fold change: 0.58

Sequence: RRIRVRPPRLPRPRPRPTVKPRP
- shrunken log2 fold change: 0.0641

Sequence: RRIRERPPRLPRPRPRPHEWPRP
- shrunken log2 fold change: -0.155

Sequence: RRIRLRPPRLPRPRPRPPNRPRP
- shrunken log2 fold change: 0.0237

Sequence: RRIRVRPPRLPRPRPRPLSLPRP
- shrunken log2 fold change: -0.0403

— the supplement of paper PMC9112550, “Optimization of the antimicrobial peptide Bac7 by deep mutational scanning” (BMC Biology, 2022)
